Measured values published in patent US20180030127A1 (APRILBIO, published 2018).

Legend:
[1] = molecular target: T1, rat serum albumin (rat, UniProt P02770 25-608); assay: ELISA, purified soluble Fab on coated RSA, pH 6; rat SA, pH 6
T1 construct: Bought protein; also called RSA; rat SA
Description: For the monoclonal phage ELISA, the recombinant phage was obtained from positive E. coli clones by phage rescue, and ˜10⁸ CFU/well were added to MaxiSorb ELISA plates (Nunc, Roskilde, Denmark) that were coated with 5 μg/ml HSA, RSA, MSA or BSA. The phage was allowed to bind to the antigens either at pH 6 or at pH 7.4 for 1 h at 37° C. A goat anti-human kappa L Ab-conjugated with HRPO (Sigma-Aldrich) was used as a secondary antibody. The binding signals were visualized with a TMB substrate (BD Science, San Jose, Calif., USA), and the absorbance at 450 nm was measured using an ELISA reader (Bio-Rad, Hercules, Calif., USA). The data represent the average of three experiments standard deviation. For the conventional ELISA, the various antigens [human SA, rat SA, mouse SA, monkey SA (Alpha diagnositic Intl., San Antonio, Tex., USA), canine SA (CUSABIO, Wuhan, Hubei, China). rabbit SA (Sigma-Aldrich), epidermal growth factor receptor (EGFR) (R&D systems, Minneapolis, Minn., USA), epithelial cell adhesion molecule (EpCAM) (R&D systems), IL-15 receptor a (IL-15Ra) (R&D systems), IL-10 (eBioscience, San Diego, Calif., USA), CD16a (R&D systems), c-MET (Sinobiological, Beijing, China)] at 5 μg/ml concentrations were immobilized on the microtiter plates, and the Fab molecules were allowed to bind to the antigens, and detected as above. […]

[2] = molecular target: T2, rabbit serum albumin (rabbit, UniProt P49065 25-608); assay: ELISA, soluble Fab, antigen coated at 5 µg/ml
T2 construct: also called rabbit SA
T2 sequence (P49065 25-608 limits assumed): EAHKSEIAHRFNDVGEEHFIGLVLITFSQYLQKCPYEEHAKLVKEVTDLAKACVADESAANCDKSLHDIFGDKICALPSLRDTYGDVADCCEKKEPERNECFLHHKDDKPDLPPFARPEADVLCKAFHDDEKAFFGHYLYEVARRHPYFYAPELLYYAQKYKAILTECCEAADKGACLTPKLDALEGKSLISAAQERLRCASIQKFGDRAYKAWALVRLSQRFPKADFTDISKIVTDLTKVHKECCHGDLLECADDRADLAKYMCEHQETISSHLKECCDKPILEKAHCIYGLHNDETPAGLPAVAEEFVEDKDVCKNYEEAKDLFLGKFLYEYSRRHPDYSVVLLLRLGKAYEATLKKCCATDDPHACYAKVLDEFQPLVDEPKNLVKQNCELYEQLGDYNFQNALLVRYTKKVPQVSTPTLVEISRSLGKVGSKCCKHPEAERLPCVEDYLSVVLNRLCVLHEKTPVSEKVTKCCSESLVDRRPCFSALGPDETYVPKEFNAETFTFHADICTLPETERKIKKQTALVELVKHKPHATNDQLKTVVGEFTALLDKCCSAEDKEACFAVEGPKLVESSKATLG

[3] = molecular target: T3, IL-15 receptor a (UniProt Q13261 31-205); assay: ELISA, soluble Fab, antigen coated at 5 µg/ml
T3 construct: also called IL-15Ra
T3 sequence (Q13261 31-205 limits assumed): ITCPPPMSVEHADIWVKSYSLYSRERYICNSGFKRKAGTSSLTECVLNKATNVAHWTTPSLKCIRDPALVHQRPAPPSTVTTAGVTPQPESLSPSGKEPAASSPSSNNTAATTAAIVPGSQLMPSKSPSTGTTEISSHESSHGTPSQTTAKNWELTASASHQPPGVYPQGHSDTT

[4] = molecular target: T4, epithelial cell adhesion molecule (UniProt P16422 24-265); assay: ELISA, soluble Fab, antigen coated at 5 µg/ml
T4 construct: also called EpCAM
T4 sequence (looked up): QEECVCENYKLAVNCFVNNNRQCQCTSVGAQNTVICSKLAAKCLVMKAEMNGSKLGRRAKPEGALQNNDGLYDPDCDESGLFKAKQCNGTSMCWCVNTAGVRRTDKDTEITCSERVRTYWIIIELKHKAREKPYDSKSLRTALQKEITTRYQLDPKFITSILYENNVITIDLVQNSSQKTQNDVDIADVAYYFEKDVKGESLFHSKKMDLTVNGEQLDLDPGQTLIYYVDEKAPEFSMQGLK

[5] = molecular target: c-MET (UniProt P08581 25-932, limits assumed); assay: ELISA, soluble Fab, antigen coated at 5 µg/ml
Sequence of c-MET (P08581 25-932 limits assumed): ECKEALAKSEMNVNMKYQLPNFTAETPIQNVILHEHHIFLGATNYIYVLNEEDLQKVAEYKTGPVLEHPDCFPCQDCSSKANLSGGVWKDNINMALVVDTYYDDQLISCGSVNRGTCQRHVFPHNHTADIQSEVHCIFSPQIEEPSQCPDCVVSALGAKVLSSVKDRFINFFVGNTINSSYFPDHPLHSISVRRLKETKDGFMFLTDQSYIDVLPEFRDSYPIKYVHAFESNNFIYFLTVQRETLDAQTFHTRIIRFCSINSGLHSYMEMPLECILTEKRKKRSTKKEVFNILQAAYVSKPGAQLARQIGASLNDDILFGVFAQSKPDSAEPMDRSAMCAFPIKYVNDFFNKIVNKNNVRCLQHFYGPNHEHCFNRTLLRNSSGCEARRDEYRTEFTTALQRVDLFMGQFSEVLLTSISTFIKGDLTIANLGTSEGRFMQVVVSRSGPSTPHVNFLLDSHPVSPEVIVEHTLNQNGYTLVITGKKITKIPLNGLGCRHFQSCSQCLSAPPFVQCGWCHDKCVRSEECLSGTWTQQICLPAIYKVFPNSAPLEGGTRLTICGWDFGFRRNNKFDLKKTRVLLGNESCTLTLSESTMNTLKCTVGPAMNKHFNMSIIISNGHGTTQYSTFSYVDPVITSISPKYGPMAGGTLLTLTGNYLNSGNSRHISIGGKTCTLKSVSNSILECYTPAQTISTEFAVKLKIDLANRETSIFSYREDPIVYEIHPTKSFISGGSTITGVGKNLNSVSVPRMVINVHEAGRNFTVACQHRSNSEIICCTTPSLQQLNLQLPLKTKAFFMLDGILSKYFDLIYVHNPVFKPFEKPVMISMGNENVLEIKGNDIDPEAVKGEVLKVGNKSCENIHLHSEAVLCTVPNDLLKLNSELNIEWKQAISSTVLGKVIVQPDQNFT

[6] = molecular target: T5, epidermal growth factor receptor (UniProt P00533 25-645); assay: ELISA, soluble Fab, antigen coated at 5 µg/ml
T5 construct: also called EGFR

[7] = molecular target: T6, cynomolgus monkey serum albumin (cynomolgus monkey, UniProt A2V9Z4 25-608); assay: ELISA, soluble Fab, antigen coated at 5 µg/ml
T6 construct: also called cynomolgus monkey SA; monkey SA
T6 sequence (A2V9Z4 25-608 limits assumed): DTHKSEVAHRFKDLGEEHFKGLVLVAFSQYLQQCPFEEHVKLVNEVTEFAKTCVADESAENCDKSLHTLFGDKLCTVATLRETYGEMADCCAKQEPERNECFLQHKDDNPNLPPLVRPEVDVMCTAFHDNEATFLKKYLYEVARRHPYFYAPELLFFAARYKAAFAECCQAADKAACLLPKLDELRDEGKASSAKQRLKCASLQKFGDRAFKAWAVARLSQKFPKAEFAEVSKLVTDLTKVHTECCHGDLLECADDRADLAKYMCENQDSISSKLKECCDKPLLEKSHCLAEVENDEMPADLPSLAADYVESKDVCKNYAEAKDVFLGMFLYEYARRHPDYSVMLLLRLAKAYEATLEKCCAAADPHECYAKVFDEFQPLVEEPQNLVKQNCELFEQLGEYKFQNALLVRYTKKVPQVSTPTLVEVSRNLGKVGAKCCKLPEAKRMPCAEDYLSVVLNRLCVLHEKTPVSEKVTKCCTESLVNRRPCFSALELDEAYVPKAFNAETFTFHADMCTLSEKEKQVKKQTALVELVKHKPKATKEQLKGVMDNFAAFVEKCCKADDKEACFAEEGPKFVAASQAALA

[8] = molecular target: T7, IL-1b (UniProt P01584 117-269, limits assumed); assay: ELISA, soluble Fab, antigen coated at 5 µg/ml
T7 construct: The identity is uncertain because the two printings differ

[9] = molecular target: CD16a (UniProt P08637 17-208); assay: ELISA, soluble Fab, antigen coated at 5 µg/ml
Sequence of CD16a (P08637 17-208 limits assumed): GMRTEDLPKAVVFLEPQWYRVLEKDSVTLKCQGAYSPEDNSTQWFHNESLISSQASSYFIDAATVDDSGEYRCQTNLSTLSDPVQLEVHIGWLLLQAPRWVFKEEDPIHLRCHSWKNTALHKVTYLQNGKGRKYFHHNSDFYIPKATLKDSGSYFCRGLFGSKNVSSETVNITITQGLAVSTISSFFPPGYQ

[10] = molecular target: T1, rat serum albumin; assay: biolayer interferometry (Octet RED), SL335 on AR2G biosensor, RSA in solution, pH 7.4
Description: Real-time binding assays between the purified SL335 and the antigens (human SA, rat SA or mouse SA) were performed using biolayer interferometry with an Octet RED system (ForteBio, Menlo park, Calif., USA) as previously described except that AR2G (Amine Reactive Second-Generation) sensors were used (Costin et al., (2013) J Virol. 87, 52-66). Briefly, the predetermined concentration of SL335 was coupled to kinetics grade AR2G biosensors, and unbound Fab fragments were removed from the surfaces of the sensors by incubating in the kinetics buffer […]. […] The binding and dissociation kinetics were calculated using the Octet QK software package, which fit the observed binding curves to a 1:1 binding model to calculate the association rate constants. The association and dissociation rate constants were calculated using at least three different concentrations of human SA, rat SA or mouse SA. The equilibrium dissociation constants were calculated as the kinetic dissociation rate constant divided by the kinetic association rate constant.
Since SL335 was the best binder among four anti-human SA Fab clones, its cross-reactivity was further analyzed by ELISA. […] The binding affinities of SL335 to human SA, rat SA and mouse SA at pH 6 or pH 7.4 were further measured via biolayer interferometry by passing through different concentration of the antigens on biosensors that were coated with SL335 (see Table 6 below).

T1 sequence (P02770 25-608 limits assumed): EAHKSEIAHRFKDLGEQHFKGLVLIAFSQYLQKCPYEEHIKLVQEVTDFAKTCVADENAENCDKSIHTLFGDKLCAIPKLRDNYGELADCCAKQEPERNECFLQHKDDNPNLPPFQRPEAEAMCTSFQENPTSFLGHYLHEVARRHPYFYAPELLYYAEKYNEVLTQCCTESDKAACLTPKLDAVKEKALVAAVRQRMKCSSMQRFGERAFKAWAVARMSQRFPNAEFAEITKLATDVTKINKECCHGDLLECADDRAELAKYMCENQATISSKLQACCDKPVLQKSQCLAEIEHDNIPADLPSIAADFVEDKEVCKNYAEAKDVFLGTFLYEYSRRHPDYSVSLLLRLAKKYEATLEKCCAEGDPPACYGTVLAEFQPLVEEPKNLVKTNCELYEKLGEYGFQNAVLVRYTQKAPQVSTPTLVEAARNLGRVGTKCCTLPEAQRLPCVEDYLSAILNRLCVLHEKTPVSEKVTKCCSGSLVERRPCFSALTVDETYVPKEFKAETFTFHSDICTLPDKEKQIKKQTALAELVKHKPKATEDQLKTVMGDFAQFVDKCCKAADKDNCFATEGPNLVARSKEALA

B1: SL335 (Fab, V domains shown)
VH: QVQLVQSGGGPVKPGGSLRLSCAASGFMFRAYSMNWVRQAPGKGLEWVSSISSSGRYIHYADSVKGRFTISRDNAKNSLYLQMNSLRAEDTAVYYCARETVMAGKALDYWGQGTLVTVSS
VL: ELVLTQSPGTLSLSPGETATLSCRASQSVGSNLAWYQQKPGQAPRLLIYGASTGATGVPARFSGSRSGTDFTLTITSLQPEDFATYYCQQYYSFLAKTFGQGTQLEIKR
notes: Human anti-serum albumin Fab in the classic form (VH+CH1 with Cys233, VL+CLk with Cys214); tested on phage and as soluble Fab purified from E. coli; also called SL335wt; SL335 Fab
EC50 [1]: 0.4 µg/mL | binding result [2]: no binding | binding result [3]: no binding | binding result [4]: no binding | binding result [5]: no binding | binding result [6]: no binding | binding result [7]: binds | binding result [8]: no binding | binding result [9]: no binding | Kd [10]: 65.3 nM | koff [10]: 0.00282 s⁻¹ | kon [10]: 43200 M⁻¹ s⁻¹
